Reference: publication PMC12170906

Molecular target: RNAP-SigA holoenzyme (Mycobacterium tuberculosis, UniProt P9WGZ1;P9WGY9;P9WGY7;P9WGI1 1-347;1-1178;1-1316;1-528)
Assay: EMSA
Details: protein: recombinant; chain copies: 2;1;1;1; blunt

RNAP-SigA holoenzyme, sequence (P9WGZ1 whole entry, chain 1 of 4): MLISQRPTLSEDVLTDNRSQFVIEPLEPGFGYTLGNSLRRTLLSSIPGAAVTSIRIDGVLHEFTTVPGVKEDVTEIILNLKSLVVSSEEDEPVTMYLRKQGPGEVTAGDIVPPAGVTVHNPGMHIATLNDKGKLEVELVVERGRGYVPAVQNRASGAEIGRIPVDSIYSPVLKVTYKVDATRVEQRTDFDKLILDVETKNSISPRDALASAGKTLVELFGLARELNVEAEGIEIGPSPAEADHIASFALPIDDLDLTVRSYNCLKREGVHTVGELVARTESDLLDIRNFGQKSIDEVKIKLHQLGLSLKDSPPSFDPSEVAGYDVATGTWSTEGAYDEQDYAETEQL
RNAP-SigA holoenzyme, sequence (P9WGY9 whole entry, chain 2 of 4): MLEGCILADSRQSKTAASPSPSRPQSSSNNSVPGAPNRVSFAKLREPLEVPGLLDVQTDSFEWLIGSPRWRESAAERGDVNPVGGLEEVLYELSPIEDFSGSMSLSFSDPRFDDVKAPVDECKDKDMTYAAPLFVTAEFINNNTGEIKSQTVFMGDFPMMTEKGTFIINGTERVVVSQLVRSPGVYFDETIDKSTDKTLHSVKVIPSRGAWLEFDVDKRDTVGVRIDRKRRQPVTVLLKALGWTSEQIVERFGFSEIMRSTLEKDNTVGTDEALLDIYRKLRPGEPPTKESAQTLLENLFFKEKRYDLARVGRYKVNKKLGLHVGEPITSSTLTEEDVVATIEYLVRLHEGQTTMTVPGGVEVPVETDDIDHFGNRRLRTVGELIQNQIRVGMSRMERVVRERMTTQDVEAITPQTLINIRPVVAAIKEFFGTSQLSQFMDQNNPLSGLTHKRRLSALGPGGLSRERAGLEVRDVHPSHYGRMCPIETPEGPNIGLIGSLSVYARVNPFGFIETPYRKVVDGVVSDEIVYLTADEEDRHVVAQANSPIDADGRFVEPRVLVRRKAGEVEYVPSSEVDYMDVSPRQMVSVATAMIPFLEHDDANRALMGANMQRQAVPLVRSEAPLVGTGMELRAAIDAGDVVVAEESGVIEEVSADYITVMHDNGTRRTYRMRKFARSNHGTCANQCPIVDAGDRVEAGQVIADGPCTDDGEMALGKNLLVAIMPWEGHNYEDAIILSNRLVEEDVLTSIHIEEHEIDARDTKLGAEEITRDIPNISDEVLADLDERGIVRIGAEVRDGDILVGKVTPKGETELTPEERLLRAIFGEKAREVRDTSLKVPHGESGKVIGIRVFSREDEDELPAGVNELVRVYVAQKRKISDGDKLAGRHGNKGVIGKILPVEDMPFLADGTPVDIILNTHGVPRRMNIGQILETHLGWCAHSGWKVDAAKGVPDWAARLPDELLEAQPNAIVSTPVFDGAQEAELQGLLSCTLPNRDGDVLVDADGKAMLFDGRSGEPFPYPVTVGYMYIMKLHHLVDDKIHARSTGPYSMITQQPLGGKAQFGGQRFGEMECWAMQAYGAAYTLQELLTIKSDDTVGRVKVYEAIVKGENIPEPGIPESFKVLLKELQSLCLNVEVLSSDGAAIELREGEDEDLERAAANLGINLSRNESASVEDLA
RNAP-SigA holoenzyme, sequence (P9WGY7 whole entry, chain 3 of 4): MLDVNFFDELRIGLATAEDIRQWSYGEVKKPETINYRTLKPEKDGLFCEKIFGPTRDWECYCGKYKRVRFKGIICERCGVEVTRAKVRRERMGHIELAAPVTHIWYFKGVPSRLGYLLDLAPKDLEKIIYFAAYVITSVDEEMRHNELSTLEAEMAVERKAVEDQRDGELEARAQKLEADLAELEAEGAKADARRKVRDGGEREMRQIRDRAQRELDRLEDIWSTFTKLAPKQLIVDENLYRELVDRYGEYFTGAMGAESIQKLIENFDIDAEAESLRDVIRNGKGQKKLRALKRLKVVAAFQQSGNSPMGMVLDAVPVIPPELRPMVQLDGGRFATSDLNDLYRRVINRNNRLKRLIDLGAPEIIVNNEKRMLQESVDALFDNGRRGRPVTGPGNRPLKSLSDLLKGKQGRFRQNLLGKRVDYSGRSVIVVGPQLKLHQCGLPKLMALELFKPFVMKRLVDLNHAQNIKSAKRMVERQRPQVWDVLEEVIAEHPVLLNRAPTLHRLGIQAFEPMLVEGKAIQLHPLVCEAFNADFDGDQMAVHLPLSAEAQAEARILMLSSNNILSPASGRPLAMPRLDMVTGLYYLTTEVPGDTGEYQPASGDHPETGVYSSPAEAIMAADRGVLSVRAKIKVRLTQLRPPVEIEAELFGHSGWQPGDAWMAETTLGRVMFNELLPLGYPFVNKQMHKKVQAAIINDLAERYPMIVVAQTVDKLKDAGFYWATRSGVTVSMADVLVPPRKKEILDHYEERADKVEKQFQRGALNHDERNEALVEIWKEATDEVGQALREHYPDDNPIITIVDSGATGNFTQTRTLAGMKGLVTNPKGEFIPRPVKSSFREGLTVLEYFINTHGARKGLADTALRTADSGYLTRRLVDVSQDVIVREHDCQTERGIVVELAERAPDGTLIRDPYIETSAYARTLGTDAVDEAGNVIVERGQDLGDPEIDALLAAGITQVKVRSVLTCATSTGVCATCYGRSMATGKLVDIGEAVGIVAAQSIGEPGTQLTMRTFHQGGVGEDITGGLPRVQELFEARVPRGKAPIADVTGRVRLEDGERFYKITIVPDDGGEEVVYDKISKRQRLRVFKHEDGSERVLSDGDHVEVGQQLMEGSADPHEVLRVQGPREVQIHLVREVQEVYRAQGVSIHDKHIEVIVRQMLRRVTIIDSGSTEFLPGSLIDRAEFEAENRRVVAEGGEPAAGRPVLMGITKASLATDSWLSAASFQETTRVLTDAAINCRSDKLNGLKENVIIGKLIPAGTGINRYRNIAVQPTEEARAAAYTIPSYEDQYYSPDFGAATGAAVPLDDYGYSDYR
RNAP-SigA holoenzyme, sequence (P9WGI1 whole entry, chain 4 of 4): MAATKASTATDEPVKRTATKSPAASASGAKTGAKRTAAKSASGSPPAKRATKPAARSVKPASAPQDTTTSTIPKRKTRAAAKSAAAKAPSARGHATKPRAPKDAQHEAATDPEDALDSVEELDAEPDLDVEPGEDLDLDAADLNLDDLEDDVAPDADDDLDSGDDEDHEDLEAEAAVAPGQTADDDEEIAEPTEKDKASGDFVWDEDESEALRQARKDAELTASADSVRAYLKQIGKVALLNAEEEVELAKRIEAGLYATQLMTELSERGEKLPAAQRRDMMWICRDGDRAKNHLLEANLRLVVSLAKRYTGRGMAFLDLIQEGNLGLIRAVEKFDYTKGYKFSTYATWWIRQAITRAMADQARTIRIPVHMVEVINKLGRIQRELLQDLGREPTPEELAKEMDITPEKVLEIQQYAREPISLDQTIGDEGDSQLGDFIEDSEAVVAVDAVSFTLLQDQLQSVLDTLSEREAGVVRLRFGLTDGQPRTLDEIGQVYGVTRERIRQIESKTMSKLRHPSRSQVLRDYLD

B1: rrnAP3/ADPr (non-template strand modified) (dsDNA)
DNA 1: CTATGGATGACCGAACCTGGTCTTGACTCCATTGCCGGATTTGTATTAGACTGGCAGGGTCGCCCCGAAGCGGGCGGAAACAAGCAAGCGTGTTGTTTGAGAACTC
DNA 2: GAGTTCTCAAACAACACGCTTGCTTGTTTCCGCCCGCTTCGGGGCGACCCTGCCAGTCTAATACAAATCCGGCAATGGAGTCAAGACCAGGTTCGGTCATCCATAG
modifications: ADP-ribosyl-thymidine on strand 1 (non-template; DarT; positions inferred near -10 in Fig 3A)
**Q.** Does B1 bind?
**A.** binds
